{
  "source": "patent US20130136756A1",
  "binders": {"B1": {"name": "Ha5-1(5)2.1vcMMAE (protein)", "heavy": "QVQLVESGGGVVQPGRSLRLSCAASGFTFSSYGMHWVRQAPGKGLEWVAVMSYDGSKKFYTDSVKGRFTISRDNSKNTLYLQMNSLRAEDTAVYYCARDGGDYVRYHYYGMDVWGQGTTVTVSSASTKGPSVFPLAPCSRSTSESTAALGCLVKDYFPEPVTVSWNSGALTSGVHTFPAVLQSSGLYSLSSVVTVPSSNFGTQTYTCNVDHKPSNTKVDKTVERKCCVECPPCPAPPVAGPSVFLFPPKPKDTLMISRTPEVTCVVVDVSHEDPEVQFNWYVDGVEVHNAKTKPREEQFNSTFRVVSVLTVVHQDWLNGKEYKCKVSNKGLPAPIEKTISKTKGQPREPQVYTLPPSREEMTKNQVSLTCLVKGFYPSDIAVEWESNGQPENNYKTTPPMLDSDGSFFLYSKLTVDKSRWQQGNVFSCSVMHEALHNHYTQKSLSLSPGK", "light": "DIQMTQSPSTLSASIGDRVTITCRASQGISYYLAWYQQKPGKIPKLLIYDTSSLQSGVPSRFSGSRSGTDLSLTISSLQPEDVATYYCQRYDSAPLTFGGGTKVEIKRTVAAPSVFIFPPSDEQLKSGTASVVCLLNNFYPREAKVQWKVDNALQSGNSQESVTEQDSKDSTYSLSSTLTLSKADYEKHKVYACEVTHQGLSSPVTKSFNRGEC", "modifications": "vcMMAE (Val-Cit linker, monomethyl auristatin E) on cysteine thiols after partial TCEP reduction; p about 3.6 per antibody; positions not given"}},
  "key": {"24P4C12 (human) [1]": {"molecular_target": "24P4C12 (human) (UniProt Q53GD3)", "sequence (Q53GD3 whole entry)": "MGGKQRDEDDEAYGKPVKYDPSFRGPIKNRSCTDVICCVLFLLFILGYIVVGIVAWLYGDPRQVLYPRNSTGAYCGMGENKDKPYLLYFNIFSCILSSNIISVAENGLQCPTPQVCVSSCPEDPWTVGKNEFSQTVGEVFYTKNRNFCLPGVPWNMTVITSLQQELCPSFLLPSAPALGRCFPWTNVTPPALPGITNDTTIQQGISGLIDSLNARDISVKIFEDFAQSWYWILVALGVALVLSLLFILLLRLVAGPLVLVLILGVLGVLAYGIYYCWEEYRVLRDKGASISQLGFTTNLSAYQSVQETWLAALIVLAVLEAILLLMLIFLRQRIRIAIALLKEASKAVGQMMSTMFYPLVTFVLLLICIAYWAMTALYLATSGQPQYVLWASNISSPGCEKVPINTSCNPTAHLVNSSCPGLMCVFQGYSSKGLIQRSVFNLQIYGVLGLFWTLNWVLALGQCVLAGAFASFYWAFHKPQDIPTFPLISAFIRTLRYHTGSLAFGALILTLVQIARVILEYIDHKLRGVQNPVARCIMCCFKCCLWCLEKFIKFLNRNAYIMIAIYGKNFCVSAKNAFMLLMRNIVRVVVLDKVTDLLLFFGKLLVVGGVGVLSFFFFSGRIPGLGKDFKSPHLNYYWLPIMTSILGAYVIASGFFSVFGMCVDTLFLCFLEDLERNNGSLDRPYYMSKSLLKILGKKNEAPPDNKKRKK", "assay": "FACS saturation binding on LNCaP cells (endogenous 24P4C12), one site fit"}, "24P4C12 (human) [2]": {"molecular_target": "24P4C12 (human) (UniProt Q53GD3)", "assay": "FACS on LNCaP cells, ADC at 0.033 nM"}, "24P4C12 (human) [3]": {"molecular_target": "24P4C12 (human) (UniProt Q53GD3)", "assay": "FACS on LNCaP cells, ADC at 106.667 nM"}, "24P4C12 (human) [4]": {"molecular_target": "24P4C12 (human) (UniProt Q53GD3)", "assay": "FACS on LNCaP cells, ADC at 0.011 nM"}, "24P4C12 (human) [5]": {"molecular_target": "24P4C12 (human) (UniProt Q53GD3)", "assay": "FACS on LNCaP cells, ADC at 0.098 nM"}, "24P4C12 (human) [6]": {"molecular_target": "24P4C12 (human) (UniProt Q53GD3)", "assay": "FACS on LNCaP cells, ADC at 0.293 nM"}, "24P4C12 (human) [7]": {"molecular_target": "24P4C12 (human) (UniProt Q53GD3)", "assay": "FACS on LNCaP cells, ADC at 160.000 nM"}, "24P4C12 (human) [8]": {"molecular_target": "24P4C12 (human) (UniProt Q53GD3)", "assay": "FACS on LNCaP cells, ADC at 7.901 nM"}, "24P4C12 (human) [9]": {"molecular_target": "24P4C12 (human) (UniProt Q53GD3)", "assay": "FACS on LNCaP cells, ADC at 2.634 nM"}, "24P4C12 (human) [10]": {"molecular_target": "24P4C12 (human) (UniProt Q53GD3)", "assay": "FACS on LNCaP cells, ADC at 0.878 nM"}, "24P4C12 (human) [11]": {"molecular_target": "24P4C12 (human) (UniProt Q53GD3)", "assay": "FACS on LNCaP cells, ADC at 23.704 nM"}, "24P4C12 (human) [12]": {"molecular_target": "24P4C12 (human) (UniProt Q53GD3)", "assay": "FACS on LNCaP cells, ADC at 71.111 nM"}},
  "data": [
    {"binder": "B1", "values": [
      {"measurement": "Kd", "setting": "24P4C12 (human) [1]", "result": 1.05, "unit": "nM"},
      {"measurement": "MFI", "setting": "24P4C12 (human) [2]", "result": 9, "unit": "MFI"},
      {"measurement": "MFI", "setting": "24P4C12 (human) [3]", "result": 114, "unit": "MFI"},
      {"measurement": "MFI", "setting": "24P4C12 (human) [4]", "result": 7, "unit": "MFI"},
      {"measurement": "MFI", "setting": "24P4C12 (human) [5]", "result": 15, "unit": "MFI"},
      {"measurement": "MFI", "setting": "24P4C12 (human) [6]", "result": 28, "unit": "MFI"},
      {"measurement": "MFI", "setting": "24P4C12 (human) [7]", "result": 116, "unit": "MFI"},
      {"measurement": "MFI", "setting": "24P4C12 (human) [8]", "result": 86, "unit": "MFI"},
      {"measurement": "MFI", "setting": "24P4C12 (human) [9]", "result": 70, "unit": "MFI"},
      {"measurement": "MFI", "setting": "24P4C12 (human) [10]", "result": 54, "unit": "MFI"},
      {"measurement": "MFI", "setting": "24P4C12 (human) [11]", "result": 97, "unit": "MFI"},
      {"measurement": "MFI", "setting": "24P4C12 (human) [12]", "result": 108, "unit": "MFI"}
    ]}
  ]
}
